Source: US20210292396A1
Positions count from the first letter of the chain named.

Key:
Test in all cases: cell-based or functional assay
[1] = biological target: Env of HIV isolate CAP210.E8 (clade C) (HIV)
[2] = biological target: Env of HIV isolate 3168.v4.c10 (clade C) (HIV)
[3] = biological target: Env of HIV isolate C1080.c3 (clade AE) (HIV)
[4] = biological target: Env of HIV isolate 6644.v2.c33 (clade C) (HIV)
[5] = biological target: Env of HIV isolate MB201.A1 (clade A) (HIV)
[6] = biological target: Env of HIV isolate BL01.DG (clade B) (HIV)
[7] = biological target: Env of HIV isolate DU123.06 (clade C) (HIV)
[8] = biological target: Env of HIV isolate Q168.a2 (clade AD) (HIV)
[9] = biological target: Env of HIV isolate JRCSF.JB (clade B) (HIV)
[10] = biological target: HIV Env of isolate 3326.v4.c3 (HIV)
[11] = biological target: HIV Env of isolate CAP45.G3 (HIV)
[12] = biological target: Env of HIV isolate 426c (clade C) (HIV)
[13] = biological target: Env of HIV isolate 191821.E6.1 (clade D) (HIV)
[14] = biological target: HIV Env of isolate 25925-2.22 (HIV)
[15] = biological target: HIV Env of isolate A03349M1.vrc4a (HIV)
[16] = biological target: HIV Env of isolate CNE15 (HIV)
[17] = biological target: HIV Env of isolate CH070.1 (HIV)
[18] = biological target: Env of HIV isolate CNE8 (clade AE) (HIV)
[19] = biological target: Env of HIV isolate 6540.v4.c1 (clade AC) (HIV)
[20] = biological target: Env of HIV isolate ZM249.1 (clade C) (HIV)
[21] = biological target: HIV Env of isolate CH119.10 (HIV)
[22] = biological target: Env of HIV isolate 26191-2.48 (clade C) (HIV)
[23] = biological target: HIV Env of isolate 6405.v4.c34 (HIV)
[24] = biological target: Env of HIV isolate T266-60 (clade AG) (HIV)
[25] = biological target: HIV Env of isolate 57128.vrc15 (HIV)
[26] = biological target: HIV Env of isolate 3337.v2.c6 (HIV)
[27] = biological target: HIV Env of isolate CAP256.206.C9 (HIV)
[28] = biological target: Env of HIV isolate Q769.d22 (clade A) (HIV)
[29] = biological target: Env of HIV isolate YU2.DG (clade B) (HIV)
[30] = biological target: HIV Env of isolate ZM109.4 (HIV)
[31] = biological target: Env of HIV isolate 3988.25 (clade B) (HIV)
[32] = biological target: Env of HIV isolate 231965.c01 (clade D) (HIV)
[33] = biological target: Env of HIV isolate T257-31 (clade AG) (HIV)
[34] = biological target: Env of HIV isolate KER2018.11 (clade A) (HIV)
[35] = biological target: Env of HIV isolate HO86.8 (clade B) (HIV)
[36] = biological target: Env of HIV isolate CNE5 (clade AE) (HIV)
[37] = biological target: Env of HIV isolate C4118.09 (clade AE) (HIV)
[38] = biological target: Env of HIV isolate 6545.v4.c1 (clade AC) (HIV)
[39] = biological target: Env of HIV isolate X2088.c9 (clade G) (HIV)
[40] = biological target: Env of HIV isolate CAP244.D3 (clade C) (HIV)
[41] = biological target: Env of HIV isolate CNE10 (clade B) (HIV)
[42] = biological target: Env of HIV isolate 3415.v1.c1 (clade A) (HIV)
[43] = biological target: HIV Env of isolate A07412M1.vrc12 (HIV)
[44] = biological target: Env of HIV isolate CNE21 (clade BC) (HIV)
[45] = biological target: Env of HIV isolate BB539.2B13 (clade A) (HIV)
[46] = biological target: Env of HIV isolate JRFL.JB (clade B) (HIV)
[47] = biological target: Env of HIV isolate 246-F3.C10.2 (clade AC) (HIV)
[48] = biological target: HIV Env of isolate DU123.06 (HIV)
[49] = biological target: Env of HIV isolate MI369.A5 (clade A) (HIV)
[50] = biological target: Env of HIV isolate CH117.4 (clade BC) (HIV)

B1: ePGT121.18 (ePGT121.18.H1 VH and ePGT121.17.L1 VL) (antibody, V domains shown)
VH: QMQLQESGPGLVKPGETLSLTCSVSGASISSSYWSWLRETPGKGLEWIGYTHHSGDTNYAPSLKSRVHLGLHPSKNQVSLSLTSVTAADTAVYYCARTLHGRRIYGVVAFNEYYTYFYWPTWGKGTQVTVSS
VL: SDISVAPGETVRITCGGESIGSRAVQWYQHRPGQAPRLIIYNNQDRPPGIPERFSGSPDIDFGTTATLTISNVEAGDEATYYCHIWDSRRPTNWELGPGTTLTVL
IC50, pseudovirus neutralization [1]: 0.02 µg/mL | IC50, pseudovirus neutralization [2]: 0.012 µg/mL | IC50, pseudovirus neutralization [3]: > 50 µg/mL | IC50, pseudovirus neutralization [4]: 0.002 µg/mL | IC50, pseudovirus neutralization [5]: 0.001 µg/mL | IC50, pseudovirus neutralization [6]: 6.91 µg/mL | IC50, pseudovirus neutralization [7]: 0.002 µg/mL | IC50, pseudovirus neutralization [8]: 2.93 µg/mL | IC50, pseudovirus neutralization [9]: 0.003 µg/mL | IC80, pseudovirus neutralization (M1) [10]: 2.15 µg/mL | IC80, pseudovirus neutralization (M2) [10]: 6.86 µg/mL | IC80, pseudovirus neutralization (M1) [11]: 20.6 µg/mL | IC80, pseudovirus neutralization (M2) [11]: 47.5 µg/mL | IC50, pseudovirus neutralization [12]: 0.065 µg/mL | IC50, pseudovirus neutralization [13]: 0.015 µg/mL | IC80, pseudovirus neutralization (M1) [14]: 0.008 µg/mL | IC80, pseudovirus neutralization (M2) [14]: 0.01 µg/mL | IC80, pseudovirus neutralization (M1) [15]: 0.007 µg/mL | IC80, pseudovirus neutralization (M2) [15]: 0.011 µg/mL | IC80, pseudovirus neutralization (M1) [16]: 36.4 µg/mL | IC80, pseudovirus neutralization (M2) [16]: > 50 µg/mL | IC80, pseudovirus neutralization (M1) [17]: 0.002 µg/mL | IC80, pseudovirus neutralization (M2) [17]: 0.002 µg/mL | IC50, pseudovirus neutralization [18]: > 50 µg/mL | IC50, pseudovirus neutralization [19]: > 50 µg/mL | IC50, pseudovirus neutralization [20]: 0.134 µg/mL | IC80, pseudovirus neutralization (M1) [21]: 0.01 µg/mL | IC80, pseudovirus neutralization (M2) [21]: 0.014 µg/mL | IC50, pseudovirus neutralization [22]: 0.003 µg/mL | IC80, pseudovirus neutralization (M1) [23]: 0.004 µg/mL | IC80, pseudovirus neutralization (M2) [23]: 0.005 µg/mL | IC50, pseudovirus neutralization [24]: 0.003 µg/mL | IC80, pseudovirus neutralization (M1) [25]: 0.009 µg/mL | IC80, pseudovirus neutralization (M2) [25]: 0.01 µg/mL | IC80, pseudovirus neutralization (M1) [26]: 1.25 µg/mL | IC80, pseudovirus neutralization (M2) [26]: 1.43 µg/mL | IC80, pseudovirus neutralization (M1) [27]: 0.003 µg/mL | IC80, pseudovirus neutralization (M2) [27]: 0.004 µg/mL | IC50, pseudovirus neutralization [28]: > 50 µg/mL | IC50, pseudovirus neutralization [29]: 0.003 µg/mL | IC80, pseudovirus neutralization (M1) [30]: > 50 µg/mL | IC80, pseudovirus neutralization (M2) [30]: > 50 µg/mL | IC50, pseudovirus neutralization [31]: 0.003 µg/mL | IC50, pseudovirus neutralization [32]: 9.17 µg/mL | IC50, pseudovirus neutralization [33]: > 50 µg/mL | IC50, pseudovirus neutralization [34]: > 50 µg/mL | IC50, pseudovirus neutralization [35]: > 50 µg/mL | IC50, pseudovirus neutralization [36]: 7.18 µg/mL | IC50, pseudovirus neutralization [37]: > 50 µg/mL | IC50, pseudovirus neutralization [38]: > 50 µg/mL | IC50, pseudovirus neutralization [39]: 0.002 µg/mL | IC50, pseudovirus neutralization [40]: 21.2 µg/mL | IC50, pseudovirus neutralization [41]: 0.002 µg/mL | IC50, pseudovirus neutralization [42]: 0.006 µg/mL | IC80, pseudovirus neutralization (M1) [43]: 0.007 µg/mL | IC80, pseudovirus neutralization (M2) [43]: 0.006 µg/mL | IC50, pseudovirus neutralization [44]: 0.0009 µg/mL | IC50, pseudovirus neutralization [45]: > 50 µg/mL | IC50, pseudovirus neutralization [46]: 0.006 µg/mL | IC50, pseudovirus neutralization [47]: 4.8 µg/mL | IC80, pseudovirus neutralization (M1) [48]: 0.006 µg/mL | IC80, pseudovirus neutralization (M2) [48]: 0.005 µg/mL | IC50, pseudovirus neutralization [49]: 0.002 µg/mL | IC50, pseudovirus neutralization [50]: > 50 µg/mL

B2: ePGT121.18.17 (ePGT121.18.H17 VH and ePGT121.17.L1 VL) (antibody, V domains shown)
VH: B1 VH with H68T, L69I, H72D
VL: B1 VL
IC50, pseudovirus neutralization [1]: 0.124 µg/mL | IC50, pseudovirus neutralization [2]: 0.053 µg/mL | IC50, pseudovirus neutralization [3]: > 50 µg/mL | IC50, pseudovirus neutralization [4]: 0.005 µg/mL | IC50, pseudovirus neutralization [5]: 0.004 µg/mL | IC50, pseudovirus neutralization [6]: 1.51 µg/mL | IC50, pseudovirus neutralization [7]: 0.004 µg/mL | IC50, pseudovirus neutralization [8]: 1.52 µg/mL | IC50, pseudovirus neutralization [9]: 0.007 µg/mL | IC80, pseudovirus neutralization [10]: 32 µg/mL | IC80, pseudovirus neutralization [11]: > 50 µg/mL | IC50, pseudovirus neutralization [12]: 0.26 µg/mL | IC50, pseudovirus neutralization [13]: 0.104 µg/mL | IC80, pseudovirus neutralization [14]: 0.021 µg/mL | IC80, pseudovirus neutralization [15]: 0.02 µg/mL | IC80, pseudovirus neutralization [16]: > 50 µg/mL | IC80, pseudovirus neutralization [17]: 0.007 µg/mL | IC50, pseudovirus neutralization [18]: > 50 µg/mL | IC50, pseudovirus neutralization [19]: > 50 µg/mL | IC50, pseudovirus neutralization [20]: 0.332 µg/mL | IC80, pseudovirus neutralization [21]: 0.028 µg/mL | IC50, pseudovirus neutralization [22]: 0.011 µg/mL | IC80, pseudovirus neutralization [23]: 0.012 µg/mL | IC50, pseudovirus neutralization [24]: 0.014 µg/mL | IC80, pseudovirus neutralization [25]: 0.038 µg/mL | IC80, pseudovirus neutralization [26]: 1.34 µg/mL | IC80, pseudovirus neutralization [27]: 0.009 µg/mL | IC50, pseudovirus neutralization [28]: > 50 µg/mL | IC50, pseudovirus neutralization [29]: 0.011 µg/mL | IC80, pseudovirus neutralization [30]: > 50 µg/mL | IC50, pseudovirus neutralization [31]: 0.004 µg/mL | IC50, pseudovirus neutralization [32]: > 50 µg/mL | IC50, pseudovirus neutralization [33]: > 50 µg/mL | IC50, pseudovirus neutralization [34]: > 50 µg/mL | IC50, pseudovirus neutralization [35]: > 50 µg/mL | IC50, pseudovirus neutralization [36]: 47 µg/mL | IC50, pseudovirus neutralization [37]: > 50 µg/mL | IC50, pseudovirus neutralization [38]: > 50 µg/mL | IC50, pseudovirus neutralization [39]: 0.006 µg/mL | IC50, pseudovirus neutralization [40]: > 50 µg/mL | IC50, pseudovirus neutralization [41]: 0.004 µg/mL | IC50, pseudovirus neutralization [42]: 0.062 µg/mL | IC80, pseudovirus neutralization [43]: 0.011 µg/mL | IC50, pseudovirus neutralization [44]: 0.002 µg/mL | IC50, pseudovirus neutralization [45]: > 50 µg/mL | IC50, pseudovirus neutralization [46]: 0.011 µg/mL | IC50, pseudovirus neutralization [47]: 18.5 µg/mL | IC80, pseudovirus neutralization [48]: 0.013 µg/mL | IC50, pseudovirus neutralization [49]: 0.008 µg/mL | IC50, pseudovirus neutralization [50]: > 50 µg/mL
